Results as given in publication PMC4513130, “Neuronal Calcium Sensor-1 Binds the D2 Dopamine Receptor and G-protein-coupled Receptor Kinase 1 (GRK1) Peptides Using Different Modes of Interactions*” (The Journal of Biological Chemistry, 2015).
Each block holds one binder with its values, some of them ahead of it.

Assays:
[1] = target: T1, Rattus norvegicus neuronal calcium sensor-1 (NCS-1), full-length, Ca2+-bound (Rattus norvegicus, UniProt P62168 1-190); test: crystal structure; NCS-1 (1 mM) with 2-fold excess of GRK1 peptide; 0.12 M alcohols, 0.1 M HEPES/MOPS pH 7.5, 30% PEGMME 550 and PEG 20000, 20 °C; 2.30 Å; settings: both partners purified
T1 construct: Neuronal calcium sensor-1, Rattus norvegicus, Swiss-Prot P62168, full length (residues 1-190); also called Ca2+/NCS-1; rat NCS-1

[2] = target: T1, Rattus norvegicus neuronal calcium …; test: ITC; 1 mM Ca2+/NCS-1 in the syringe titrated into 100 uM D2R peptide in the cell, 25 °C, 50 mM Tris-HCl, 50 mM NaCl, 5 mM CaCl2, pH 7.5; fitted to a sequential model and to a two-site nonsequential model with stoichiometry fixed at 1:2 NCS-1:peptide; settings: both partners purified

binding result [1]: binds
B1: GRK1 peptide (N terminus of G-protein-coupled receptor kinase 1, residues 1-25) (peptide)
peptide: MDFGSLETVVANSAFIAARGSFDGS
notes: also called RK25; source: synthetic peptide, bought: GenicBio, China (>95% pure)

Kd [2]: 40 ± 6 µM
B2: D2 receptor peptide (D2R peptide) (peptide)
peptide: NIEFRKAFLKILHSR
notes: terminal Arg added to improve solubility; also called D2B (copy in the N-lobe site); D2C (copy in the C-lobe site); source: synthetic peptide, bought: GenicBio, China (>95% pure)
